Results published in EP4361176A1 (CHUGAI SEIYAKU KABUSHIKI KAISHA, dated 2024).
Numbering of substitutions follows the chain as printed. Numbers in names are those of the source.

T1: human FcγRIIa H extracellular domain (human, UniProt P12318 34-217)
T1 construct: extracellular domain; Made by the method of WO2014104165; also called hFcγR IIa H; FcyRIIaH
T1 sequence (looked up): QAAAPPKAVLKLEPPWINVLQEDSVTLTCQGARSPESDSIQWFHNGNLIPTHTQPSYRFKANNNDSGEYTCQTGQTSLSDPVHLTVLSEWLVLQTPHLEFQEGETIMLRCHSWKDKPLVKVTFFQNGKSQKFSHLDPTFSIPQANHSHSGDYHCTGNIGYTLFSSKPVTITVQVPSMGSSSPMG

T2: hFcyRIIaH on hFcyRIIaH-expressing Jurkat cells (human, UniProt P12318 34-317)
T2 sequence (looked up): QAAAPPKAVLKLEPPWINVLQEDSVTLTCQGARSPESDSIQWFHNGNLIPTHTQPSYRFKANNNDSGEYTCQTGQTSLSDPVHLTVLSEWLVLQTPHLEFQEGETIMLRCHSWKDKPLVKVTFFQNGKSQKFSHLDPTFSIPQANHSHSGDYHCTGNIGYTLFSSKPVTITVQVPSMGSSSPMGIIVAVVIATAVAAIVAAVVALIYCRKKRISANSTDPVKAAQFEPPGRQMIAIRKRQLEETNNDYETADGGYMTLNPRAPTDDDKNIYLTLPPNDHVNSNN

B1: H240-Kn496/L73-k0//H240-Hl516/L73-k0 (antibody, human IgG1, kappa)
heavy 1: QDQLVQSGAEVKKPGASVKVSCKASGFNIKDTYIQWVRQAPGQGLEWMGRIDPLRKQTKYREKFEGRVTITADTSTNTAYMELSSLRSEDTAVYYCVRSGREFDYWGQGTLVTVSSASTKGPSVFPLAPSSKSTSGGTAALGCLVKDYFPEPVTVSWNSGALTSGVHTFPAVLQSSGLYSLSSVVTVPSSSLGTQTYICNVNHKPSNTKVDKKVEPKSCDKTHTCPPCPAPEFQWGPMVFLFPPKPKDVLMISRTPEVTCVVVDVSDEEPEVKFNWYVDGVEVHNAKTKPREEQYNATYRVVSVLPVLHQDWLNGKEYKCKVSNKALPAPIEKTISKAKGQPREPQVCTLPPSRDELTKNQVSLWCLVKGFYPSDIAVEWESNGQPENNYKTTPPVLDSDGSFFLYSKLTVDKSRWQQGNVFSCSVMHEALHNHYTQKSLSLSP
heavy 2: QDQLVQSGAEVKKPGASVKVSCKASGFNIKDTYIQWVRQAPGQGLEWMGRIDPLRKQTKYREKFEGRVTITADTSTNTAYMELSSLRSEDTAVYYCVRSGREFDYWGQGTLVTVSSASTKGPSVFPLAPSSKSTSGGTAALGCLVKDYFPEPVTVSWNSGALTSGVHTFPAVLQSSGLYSLSSVVTVPSSSLGTQTYICNVNHKPSNTKVDKKVEPKSCDKTHTCPPCPAPELLGGPSVFLFPPKPKDVLMISRTPEVTCVVVDVSHEEPEVKFNWYVDGVEVHNAKTKPREEQYNATYRVVSVLPVLHQDWLNGKEYKCKVSNDALPAPIEETISKAKGQPREPQVYTLPPSRCELTKNQVSLSCAVKGFYPSDIAVEWESNGQPENNYKTTPPVLDSDGSFFLVSKLTVDKSRWQQGNVFSCSVMHEALHNHYTQKSLSLSP
light: DIQMTQSPSSLSASVGDRVTITCRASQDIHKYIAWYQQKPGQAPRLLIQYTSTLQPGVPSRFSGSGSGTDYTFTISSLQPEDIATYYCLQYEQLRTFGGGTKVEIKRTVAAPSVFIFPPSDEQLKSGTASVVCLLNNFYPREAKVQWKVDNALQSGNSQESVTEQDSKDSTYSLSSTLTLSKADYEKHKVYACEVTHQGLSSPVTKSFNRGEC
notes: also called EGL-ART11; ART11
B2: H240-G1d/L73-k0 (antibody, human IgG1, kappa)
heavy: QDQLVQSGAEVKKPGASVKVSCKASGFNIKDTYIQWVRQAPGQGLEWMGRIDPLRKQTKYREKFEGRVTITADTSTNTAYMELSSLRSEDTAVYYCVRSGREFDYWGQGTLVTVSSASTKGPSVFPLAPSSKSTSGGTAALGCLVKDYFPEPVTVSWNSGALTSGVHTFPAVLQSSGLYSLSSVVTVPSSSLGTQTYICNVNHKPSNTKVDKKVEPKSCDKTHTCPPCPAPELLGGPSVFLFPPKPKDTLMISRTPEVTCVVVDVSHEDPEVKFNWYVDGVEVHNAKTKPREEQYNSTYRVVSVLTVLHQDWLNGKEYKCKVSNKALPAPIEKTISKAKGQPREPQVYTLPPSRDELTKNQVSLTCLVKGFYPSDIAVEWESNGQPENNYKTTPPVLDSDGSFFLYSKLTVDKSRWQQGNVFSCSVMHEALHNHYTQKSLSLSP
light: B1 light
notes: Anti-human Epiregulin antibody with the human IgG1 constant region G1d (C-terminal Gly and Lys removed); the text gives 279; also called EGL-G1d
B3: H240-Kn032/L73-k0//H240-Hl032/L73-k0 (antibody, human IgG1, kappa)
heavy 1: QDQLVQSGAEVKKPGASVKVSCKASGFNIKDTYIQWVRQAPGQGLEWMGRIDPLRKQTKYREKFEGRVTITADTSTNTAYMELSSLRSEDTAVYYCVRSGREFDYWGQGTLVTVSSASTKGPSVFPLAPSSKSTSGGTAALGCLVKDYFPEPVTVSWNSGALTSGVHTFPAVLQSSGLYSLSSVVTVPSSSLGTQTYICNVNHKPSNTKVDKKVEPKSCDKTHTCPPCPAPELLGGPDVFLFPPKPKDTLMISRTPEVTCVVVDVSHEDPEVKFNWYVDGVEVHNAKTKPREEQYNSTYRVVSVLTVLHQDWLNGKEYKCKVSNKALPLPEEKTISKAKGQPREPQVCTLPPSRDELTKNQVSLWCLVKGFYPSDIAVEWESNGQPENNYKTTPPVLDSDGSFFLYSKLTVDKSRWQQGNVFSCSVMHEALHNHYTQKSLSLSP
heavy 2: B3 heavy 1 with C348Y, D355C, W365S, L367A, Y406V
light: B1 light
notes: also called EGL-SDALIE; SDALIE
B4: H240-Kn120/L73-k0//H240-Hl068/L73-k0 (antibody, human IgG1, kappa)
heavy 1: B1 heavy 1 with F233Y, Q234Y, V249T, E269D, P306T, A326D
heavy 2: B1 heavy 2 with V249T, A297S, P306T, A329K
light: B1 light
notes: also called EGL-ART2; ART2
B5: H240-Kn125/L73-k0//H240-Hl076/L73-k0 (antibody, human IgG1, kappa)
heavy 1: B1 heavy 1 with F233Y, V249T, P306T
heavy 2: B1 heavy 2 with V249T, A297S, P306T, A329M
light: B1 light
notes: Heterodimerized anti-human Epiregulin antibody, asymmetric Fc variant; also called EGL-ART1; ART1
B6: H240-Kn462/L73-k0//H240-Hl445/L73-k0 (antibody, human IgG1, kappa)
heavy 1: B1 heavy 1 with K325D
heavy 2: B1 heavy 2 with G235A, A329K, I331D
light: B1 light
notes: also called EGL-ART6; ART6
B7: H240-Kn494/L73-k0//H240-Hl514/L73-k0 (antibody, human IgG1, kappa)
heavy 1: B1 heavy 1 with I331E
heavy 2: B1 heavy 2 with I331E
light: B1 light
notes: '1332E' read as I332E; also called EGL-ART10; ART10
B8: H240-Kn462/L73-k0//H240-Hl441/L73-k0 (antibody, human IgG1, kappa)
heavy 1: B1 heavy 1 with K325D
heavy 2: B1 heavy 2 with G235A
light: B1 light
notes: also called EGL-ART5; ART5
B9: H240-Kn443/L73-k0//H240-Hl408/L73-k0 (antibody, human IgG1, kappa)
heavy 1: B1 heavy 1 with V249T, P306T, K325D
heavy 2: B1 heavy 2 with G235A, V249T, P306T
light: B1 light
notes: also called EGL-ART3; ART3
B10: H240-Kn456/L73-k0//H240-Hl446/L73-k0 (antibody, human IgG1, kappa)
heavy 1: B1 heavy 1 with A329M, I331E
heavy 2: B1 heavy 2 with G235A, A329M, I331E
light: B1 light
notes: also called EGL-ART4; ART4
B11: H240-Kn498/L73-k0//H240-Hl518/L73-k0 (antibody, human IgG1, kappa)
heavy 1: B1 heavy 1 with A329M
heavy 2: B1 heavy 2 with A329M
light: B1 light
notes: also called EGL-ART12; ART12
B12: H240-GASDALIE/L73-k0 (antibody, human IgG1, kappa)
heavy: B3 heavy 1 with G235A, C348Y, W365T
light: B1 light
B13: H240-Kn461/L73-k0//H240-Hl443/L73-k0 (antibody, human IgG1, kappa)
heavy 1: B1 heavy 1 with K325D, I331E
heavy 2: B1 heavy 2 with G235A, I331E
light: B1 light
notes: also called EGL-ART8; ART8

Each binder was assayed against hFcyRIIIaV on hFcyRIIIaV-expressing Jurkat cells (human, UniProt P08637 17-254) (assay: cell-based or functional assay).
hFcyRIIIaV on hFcyRIIIaV-expressing Jurkat cells, sequence (P08637 17-254): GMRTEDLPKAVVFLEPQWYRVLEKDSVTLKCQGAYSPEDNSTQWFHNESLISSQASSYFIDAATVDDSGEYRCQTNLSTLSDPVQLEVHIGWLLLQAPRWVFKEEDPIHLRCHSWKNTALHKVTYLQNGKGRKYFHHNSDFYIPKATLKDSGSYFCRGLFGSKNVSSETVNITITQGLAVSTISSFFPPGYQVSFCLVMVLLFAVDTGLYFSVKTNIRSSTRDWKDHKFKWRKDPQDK

Row | Binder | EC50 value (µg/mL), ADCC reporter bioassay (fold induction of luminescence), Hepa1-6/hEREG target cells
1 | B1 | 0.000413 µg/mL
2 | B2 | 0.0463 µg/mL
3 | B3 | 0.00178 µg/mL
4 | B4 | 0.00135 µg/mL
5 | B5 | 0.000716 µg/mL
6 | B6 | 0.0015 µg/mL
7 | B7 | 0.000107 µg/mL
8 | B8 | 0.00167 µg/mL
9 | B9 | 0.00153 µg/mL
10 | B10 | 0.000789 µg/mL
11 | B11 | 0.000304 µg/mL
12 | B12 | 0.00208 µg/mL
13 | B13 | 0.00107 µg/mL

What follows are binders tested against T1, human FcγRIIa H extracellular domain (assay: SPR; KD for FcγRIIb divided by KD for this FcγR).

Row | Binder | A/I ratio (KD for FcγRIIb divided by KD for each FcyR)
14 | B1 | 63.3
15 | B2 | 8.9
16 | B3 | 2.2
17 | B4 | 5.8
18 | B5 | 47.4
19 | B6 | 307
20 | B7 | 17.3
21 | B8 | 240
22 | B9 | 181
23 | B10 | 65.2
24 | B11 | 60.3
25 | B12 | 16.5
26 | B13 | 47.2

The binders below were run against T3, human FcγRIIIa F extracellular domain (human, UniProt P08637 17-208) (assay: SPR; KD for FcγRIIb divided by KD for this FcγR).
T3 construct: extracellular domain; Made by the method of WO2014104165; also called hFcγR IIIa F; FcyRIIIaF
T3 sequence (P08637 17-208): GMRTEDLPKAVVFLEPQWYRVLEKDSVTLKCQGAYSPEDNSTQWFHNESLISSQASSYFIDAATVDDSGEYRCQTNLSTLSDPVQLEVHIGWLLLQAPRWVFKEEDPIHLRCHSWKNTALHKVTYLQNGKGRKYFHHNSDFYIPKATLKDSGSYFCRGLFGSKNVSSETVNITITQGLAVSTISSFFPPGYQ

Row | Binder | A/I ratio (KD for FcγRIIb divided by KD for each FcyR)
27 | B1 | 694
28 | B2 | 3.4
29 | B3 | 98.7
30 | B4 | 68.4
31 | B5 | 4950
32 | B6 | 976
33 | B7 | 3160
34 | B8 | 399
35 | B9 | 396
36 | B10 | 9940
37 | B11 | 4310
38 | B12 | 89.3
39 | B13 | 2350

Each binder was assayed against T2, hFcyRIIaH on hFcyRIIaH-expressing … (assay: cell-based or functional assay).

Row | Binder | EC50 value (µg/mL), ADCP reporter bioassay (fold induction of luminescence), Hepa1-6/hEREG target cells
40 | B1 | 0.0367 µg/mL
41 | B4 | 0.0218 µg/mL
42 | B5 | 0.0353 µg/mL
43 | B6 | 0.0192 µg/mL
44 | B7 | 0.0419 µg/mL
45 | B8 | 0.0245 µg/mL
46 | B9 | 0.0158 µg/mL
47 | B10 | 0.0432 µg/mL
48 | B11 | 0.085 µg/mL
49 | B12 | 0.0324 µg/mL
50 | B13 | 0.0171 µg/mL
